# Measurements as given in article PMC11067741, “Crystal structure of human peptidylarginine deiminase type VI (PAD6) provides insights into its inactivity” (IUCrJ, 2024).
# Biological target: the molecule itself
# Assay: SEC; analytical SEC on Superdex 200 increase 5/150GL, 20 mM Tris-HCl pH 7.5, 200 mM NaCl, 1 mM TCEP; PAD6 at 1 mg/ml, 0.3 ml/min; calibrated with protein standards
protein,measurement,value
"recombinant human peptidylarginine deiminase type VI (PAD6) V2-P694 S10E S446E (enzyme, UniProt Q6TGC4 2-694, looked up, human peptidylarginine deiminase type VI (PAD6), residues V2-P694, called a full-length construct, with the phosphomimetic mutations S10E and S446E; also called phosphomimetic PAD6; human PAD6 phosphomimic mutant; source: HEK cells, transient transfection, purified (glutathione Sepharose, TEV cleavage, reverse HisTrap, Superdex 200); not shown: His6, N-terminal, cleaved; GST, N-terminal, cleaved) VSVEGRAMEFQSIIHLSLDSPVHAVCVLGTEICLDLSGCAPQKCQCFTIHGSGRVLIDVANTVISEKEDATIWWPLSDPTYATVKMTSPSPSVDADKVSVTYYGPNEDAPVGTAVLYLTGIEVSLEVDIYRNGQVEMSSDKQAKKKWIWGPSGWGAILLVNCNPADVGQQLEDKKTKKVIFSEEITNLSQMTLNVQGPSCILKKYRLVLHTSKEESKKARVYWPQKDNSSTFELVLGPDQHAYTLALLGNHLKETFYVEAIAFPSAEFSGLISYSVSLVEESQDPSIPETVLYKDTVVFRVAPCVFIPCTQVPLEVYLCRELQLQGFVDTVTKLSEKSNSQVASVYEDPNRLGRWLQDEMAFCYTQAPHKTTSLILDTPQAADLDEFPMKYSLSPGIGYMIQDTEDHKVASMDSIGNLMVSPPVKVQGKEYPLGRVLIGSSFYPEAEGRAMSKTLRDFLYAQQVQAPVELYSDWLMTGHVDEFMCFIPTDDKNEGKKGFLLLLASPSACYKLFREKQKEGYGDALLFDELRADQLLSNGREAKTIDQLLADESLKKQNEYVEKCIHLNRDILKTELGLVEQDIIEIPQLFCLEKLTNIPSDQQPKRSFARPYFPDLLRMIVMGKNLGIPKPFGPQIKGTCCLEEKICCLLEPLGFKCTFINDFDCYLTEVGDICACANIRRVPFAFKWWKMVP",stoichiometry N,2
